# Results taken from patent publication US20260167699A1 (Chugai, published 2026).
# Where a chain is given by its changes, count along the chain named.
# T1: FcγRIIa(R) extracellular domain with C-terminal His tag (human, UniProt P12318 34-217)
# T1 construct: extracellular domain; R131 allotype; also called 2aR; CD32
# T1 sequence: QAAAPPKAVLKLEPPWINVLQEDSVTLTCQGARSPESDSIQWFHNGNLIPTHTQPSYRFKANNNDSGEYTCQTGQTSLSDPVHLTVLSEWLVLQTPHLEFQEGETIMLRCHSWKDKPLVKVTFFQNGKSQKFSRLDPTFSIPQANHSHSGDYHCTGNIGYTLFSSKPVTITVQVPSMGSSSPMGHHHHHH
# T2: FcγRIIa(H) extracellular domain with C-terminal His tag (human, UniProt P12318 34-217)
# T2 construct: extracellular domain; H131 allotype; also called 2aH; CD32
# T2 sequence: T1 sequence with R134H
# T3: FcγRIIb extracellular domain with C-terminal His tag (human, UniProt P31994 43-217)
# T3 construct: extracellular domain; also called 2b; CD32
# T3 sequence: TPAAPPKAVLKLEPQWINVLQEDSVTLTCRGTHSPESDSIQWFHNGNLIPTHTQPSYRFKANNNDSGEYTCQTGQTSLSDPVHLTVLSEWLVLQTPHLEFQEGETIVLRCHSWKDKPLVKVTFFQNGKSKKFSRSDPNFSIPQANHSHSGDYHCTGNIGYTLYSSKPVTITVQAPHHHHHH
# B1: GpH7-A5/GpH7-B3 variant E333_18N/GpL16-k0 (antibody, human IgG1, kappa)
# heavy 1: not shown
# heavy 2: not shown
# light: DIVMTQSPLSLPVTPGEPASISCQASESLVHSNRNTYLHWYLQKPGQSPQLLIYKVSNRFSGVPDRFSGSGSGTDFTLKISRVEAEDVGVYYCSQNTHVPPTFGQGTKVEIERTVAAPSVFIFPPSDEQLKSGTASVVCLLNNFYPREAKVQWKVDNALQSGNSQESVTEQDSKDSTYSLSSTLTLSKADYEKHKVYACEVTHQGLSSPVTKSFNRGEC
# notes: heterodimerized IgG1 (He Ab), mutation in one H chain only; also called He Ab
# B2: GpH7-A5/GpH7-B3 variant I336_03V/GpL16-k0 (antibody, human IgG1, kappa)
# heavy 1: not shown
# heavy 2: not shown
# light: B1 light
# notes: as for B1
# B3: GpH7-A5/GpH7-B3 variant I332_15Y/GpL16-k0 (antibody, human IgG1, kappa)
# heavy 1: not shown
# heavy 2: not shown
# light: B1 light
# notes: as for B1
# B4: GpH7-A5/GpH7-B3 variant I336_02A/GpL16-k0 (antibody, human IgG1, kappa)
# heavy 1: not shown
# heavy 2: not shown
# light: B1 light
# notes: as for B1
# B5: GpH7-A5/GpH7-B3 variant I336_01G/GpL16-k0 (antibody, human IgG1, kappa)
# heavy 1: not shown
# heavy 2: not shown
# light: B1 light
# notes: as for B1
# B6: GpH7-A5/GpH7-B3 variant E333_20W/GpL16-k0 (antibody, human IgG1, kappa)
# heavy 1: not shown
# heavy 2: not shown
# light: B1 light
# notes: as for B1
# B7: GpH7-A5/GpH7-B3 variant I332_16H/GpL16-k0 (antibody, human IgG1, kappa)
# heavy 1: not shown
# heavy 2: not shown
# light: B1 light
# notes: as for B1
# B8: GpH7-A5/GpH7-B3 variant I332_04F/GpL16-k0 (antibody, human IgG1, kappa)
# heavy 1: not shown
# heavy 2: not shown
# light: B1 light
# notes: as for B1
# B9: GpH7-A5/GpH7-B3 variant I332_03V/GpL16-k0 (antibody, human IgG1, kappa)
# heavy 1: not shown
# heavy 2: not shown
# light: B1 light
# notes: as for B1
# B10: GpH7-A5/GpH7-B3 variant I332_18N/GpL16-k0 (antibody, human IgG1, kappa)
# heavy 1: not shown
# heavy 2: not shown
# light: B1 light
# notes: as for B1
# B11: GpH7-A5/GpH7-B3 variant E333_19Q/GpL16-k0 (antibody, human IgG1, kappa)
# heavy 1: not shown
# heavy 2: not shown
# light: B1 light
# notes: as for B1
# B12: GpH7-A5/GpH7-B3 variant I336_04F/GpL16-k0 (antibody, human IgG1, kappa)
# heavy 1: not shown
# heavy 2: not shown
# light: B1 light
# notes: as for B1
# B13: GpH7-A5/GpH7-B3 variant I332_19Q/GpL16-k0 (antibody, human IgG1, kappa)
# heavy 1: not shown
# heavy 2: not shown
# light: B1 light
# notes: as for B1
# B14: GpH7-A5/GpH7-B3 variant I332_10E/GpL16-k0 (antibody, human IgG1, kappa)
# heavy 1: not shown
# heavy 2: not shown
# light: B1 light
# notes: as for B1
# B15: GpH7-A5/GpH7-B3 variant I332_13S/GpL16-k0 (antibody, human IgG1, kappa)
# heavy 1: not shown
# heavy 2: not shown
# light: B1 light
# notes: as for B1
# B16: GpH7-A5/GpH7-B3 variant I332_12R/GpL16-k0 (antibody, human IgG1, kappa)
# heavy 1: not shown
# heavy 2: not shown
# light: B1 light
# notes: as for B1
# B17: GpH7-A5/GpH7-B3 variant I332_20W/GpL16-k0 (antibody, human IgG1, kappa)
# heavy 1: not shown
# heavy 2: not shown
# light: B1 light
# notes: as for B1
# B18: GpH7-A5/GpH7-B3 variant I332_02A/GpL16-k0 (antibody, human IgG1, kappa)
# heavy 1: not shown
# heavy 2: not shown
# light: B1 light
# notes: as for B1
# B19: GpH7-A5/GpH7-B3 variant I332_01G/GpL16-k0 (antibody, human IgG1, kappa)
# heavy 1: not shown
# heavy 2: not shown
# light: B1 light
# notes: as for B1
# B20: GpH7-A5/GpH7-B3 variant I332_08L/GpL16-k0 (antibody, human IgG1, kappa)
# heavy 1: not shown
# heavy 2: not shown
# light: B1 light
# notes: as for B1
# B21: GpH7-A5/GpH7-B3 variant I332_06M/GpL16-k0 (antibody, human IgG1, kappa)
# heavy 1: not shown
# heavy 2: not shown
# light: B1 light
# notes: as for B1
# B22: GpH7-A5/GpH7-B3 variant I336_06M/GpL16-k0 (antibody, human IgG1, kappa)
# heavy 1: not shown
# heavy 2: not shown
# light: B1 light
# notes: as for B1
# B23: GpH7-A5/GpH7-B3 variant I332_05P/GpL16-k0 (antibody, human IgG1, kappa)
# heavy 1: not shown
# heavy 2: not shown
# light: B1 light
# notes: as for B1
# B24: GpH7-A5/GpH7-B3 variant I332_09D/GpL16-k0 (antibody, human IgG1, kappa)
# heavy 1: not shown
# heavy 2: not shown
# light: B1 light
# notes: as for B1
# B25: GpH7-A5/GpH7-B3 variant I336_08L/GpL16-k0 (antibody, human IgG1, kappa)
# heavy 1: not shown
# heavy 2: not shown
# light: B1 light
# notes: as for B1
# B26: GpH7-A5/GpH7-B3 variant I332_14T/GpL16-k0 (antibody, human IgG1, kappa)
# heavy 1: not shown
# heavy 2: not shown
# light: B1 light
# notes: as for B1
# Target: T4, FcγRIa extracellular domain with C-terminal His tag (human, UniProt P12314 16-292)
# T4 construct: extracellular domain; also called 1a; CD64
# T4 sequence (P12314 other isoform, or with tags, fused parts or gaps): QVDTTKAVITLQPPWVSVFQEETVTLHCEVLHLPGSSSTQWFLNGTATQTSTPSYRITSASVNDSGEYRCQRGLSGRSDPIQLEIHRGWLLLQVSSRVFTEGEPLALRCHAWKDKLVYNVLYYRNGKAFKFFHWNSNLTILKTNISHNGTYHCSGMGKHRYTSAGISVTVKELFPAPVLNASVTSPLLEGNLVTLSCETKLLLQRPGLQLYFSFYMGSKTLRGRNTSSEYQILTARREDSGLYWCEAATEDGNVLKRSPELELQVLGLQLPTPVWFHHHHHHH
# Test: SPR; % of GpH7-A5/GpH7-B3/GpL16-k0
row,He/Con 1a [%],Binder
1,91.4,B1
2,108,B2
3,101,B3
4,109,B4
5,112,B5
6,93.9,B6
7,100,B7
8,106,B8
9,100,B9
10,99.3,B10
11,93.7,B11
12,109,B12
13,103,B13
14,109,B14
15,97.3,B15
16,102,B16
17,104,B17
18,100,B18
19,102,B19
20,104,B20
21,105,B21
22,112,B22
23,99.2,B23
24,106,B24
25,111,B25
26,104,B26

# Target: T1, FcγRIIa(R) extracellular domain with …
# Test: SPR; % of GpH7-A5/GpH7-B3/GpL16-k0
row,He/Con 2aR [%],Binder
1,118,B1
2,104,B2
3,109,B3
4,100,B4
5,104,B5
6,132,B6
7,97.6,B7
8,104,B8
9,87,B9
10,98.3,B10
11,130,B11
12,105,B12
13,95.1,B13
14,113,B14
15,97.9,B15
16,73.5,B16
17,117,B17
18,96.9,B18
19,92.2,B19
20,91,B20
21,108,B21
22,112,B22
23,80.5,B23
24,118,B24
25,116,B25
26,104,B26

# Target: T2, FcγRIIa(H) extracellular domain with …
# Test: SPR; % of GpH7-A5/GpH7-B3/GpL16-k0
row,He/Con 2aH [%],Binder
1,110,B1
2,106,B2
3,119,B3
4,102,B4
5,100,B5
6,106,B6
7,113,B7
8,108,B8
9,108,B9
10,114,B10
11,113,B11
12,98.3,B12
13,112,B13
14,112,B14
15,113,B15
16,104,B16
17,115,B17
18,115,B18
19,102,B19
20,94.9,B20
21,114,B21
22,110,B22
23,69.9,B23
24,122,B24
25,109,B25
26,119,B26

# Target: T3, FcγRIIb extracellular domain with …
# Test: SPR; % of GpH7-A5/GpH7-B3/GpL16-k0
row,He/Con 2b [%],Binder
1,98.2,B1
2,98.7,B2
3,112,B3
4,92.8,B4
5,98.4,B5
6,116,B6
7,103,B7
8,115,B8
9,89.5,B9
10,99.6,B10
11,110,B11
12,99.6,B12
13,104,B13
14,158,B14
15,109,B15
16,60.9,B16
17,102,B17
18,114,B18
19,96.6,B19
20,91.3,B20
21,116,B21
22,111,B22
23,83.7,B23
24,163,B24
25,117,B25
26,118,B26

# Target: T5, FcγRIIIa extracellular domain with C-terminal His tag (human, UniProt P08637 17-208)
# T5 construct: extracellular domain; also called 3a; CD16
# T5 sequence (P08637 other isoform, or with tags, fused parts or gaps): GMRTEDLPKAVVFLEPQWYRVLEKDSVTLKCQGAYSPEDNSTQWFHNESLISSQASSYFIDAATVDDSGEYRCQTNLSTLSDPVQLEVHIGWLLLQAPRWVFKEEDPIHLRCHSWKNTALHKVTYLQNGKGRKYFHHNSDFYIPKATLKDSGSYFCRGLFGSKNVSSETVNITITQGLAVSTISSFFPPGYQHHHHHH
# Test: SPR; % of GpH7-A5/GpH7-B3/GpL16-k0
row,He/Con 3a [%],Binder
1,76.2,B1
2,107,B2
3,92.4,B3
4,106,B4
5,94.6,B5
6,104,B6
7,89,B7
8,89.3,B8
9,85.2,B9
10,84.9,B10
11,101,B11
12,93.2,B12
13,101,B13
14,213,B14
15,95.6,B15
16,78.1,B16
17,116,B17
18,103,B18
19,101,B19
20,76,B20
21,92.5,B21
22,104,B22
23,56.3,B23
24,189,B24
25,102,B25
26,110,B26
